# US20170275666A1, “Methods for Preparing Rebaudioside I and Uses” (The Coca-Cola Company, priority 2014, published 2017)
# Changes are numbered by the printed parent chain.
# B1: UGT76G1var60: UGT76G1 variant, mutations E231A_L243A_V279I_S357N (protein, UniProt Q6VAB4 1-458, looked up, variant E231A L243A V279I S357N)
# UDP-glycosyltransferase 76G1: MENKTETTVRRRRRIILFPVPFQGHINPILQLANVLYSKGFSITIFHTNFNKPKTSNYPHFTFRFILDNDPQDERISNLPTHGPLAGMRIPIINEHGADELRRELELLMLASEEDEEVSCLITDALWYFAQSVADSLNLRRLVLMTSSLFNFHAHVSLPQFDELGYLDPDDKTRLEEQASGFPMLKVKDIKSAYSNWQILKEILGKMIKQTKASSGVIWNSFKELEESELATVIREIPAPSFAIPLPKHLTASSSSLLDHDRTVFQWLDQQPPSSVLYISFGSTSEVDEKDFLEIARGLVDSKQSFLWVVRPGFVKGSTWVEPLPDGFLGERGRIVKWVPQQEVLAHGAIGAFWTHNGWNSTLESVCEGVPMIFSDFGLDQPLNARYMSDVLKVGVYLENGWERGEIANAIRRVMVDEEGEYIRQNARVLKQKADVSLMKGGSSYESLESLVSYISSL
# B2: UGT76G1var77: UGT76G1 variant, mutations A239V_F265I_I295T_D301N_K393G (protein, UniProt Q6VAB4 1-458, looked up, variant A239V F265I I295T D301N K393G)
# UDP-glycosyltransferase 76G1: B1 UDP-glycosyltransferase 76G1 with A231E, A239V, A243L, F265I, I279V, I295T, D301N, N357S, K393G
# B3: UGT76G1var61: UGT76G1 variant, mutations I43V_F265I_Q266S_L379A (protein, UniProt Q6VAB4 1-458, looked up, variant I43V F265I Q266S L379A)
# UDP-glycosyltransferase 76G1: B1 UDP-glycosyltransferase 76G1 with I43V, A231E, A243L, F265I, Q266S, I279V, N357S, L379A
# B4: UGT76G1var64: UGT76G1 variant, mutations F22L_A239I_R334H_I407V (protein, UniProt Q6VAB4 1-458, looked up, variant F22L A239I R334H I407V)
# UDP-glycosyltransferase 76G1: B1 UDP-glycosyltransferase 76G1 with F22L, A231E, A239I, A243L, I279V, R334H, N357S, I407V
# B5: UGT76G1var74: UGT76G1 variant, mutations I295T_I373L_S375R_Y397Q_Q432E (protein, UniProt Q6VAB4 1-458, looked up, variant I295T I373L S375R Y397Q Q432E)
# UDP-glycosyltransferase 76G1: B1 UDP-glycosyltransferase 76G1 with A231E, A243L, I279V, I295T, N357S, I373L, S375R, Y397Q, Q432E
# B6: UGT76G1var5: UGT76G1 variant, mutations F22Y_I373L_P382M (protein, UniProt Q6VAB4 1-458, looked up, variant F22Y I373L P382M)
# UDP-glycosyltransferase 76G1: B1 UDP-glycosyltransferase 76G1 with F22Y, A231E, A243L, I279V, N357S, I373L, P382M
# B7: UGT76G1var66: UGT76G1 variant (round 1), mutations F265L_V310I_V366I_A385T (protein, UniProt Q6VAB4 1-458, looked up, variant F265L V310I V366I A385T)
# UDP-glycosyltransferase 76G1: B1 UDP-glycosyltransferase 76G1 with A231E, A243L, F265L, I279V, V310I, N357S, V366I, A385T
# B8: UGT76G1var81: UGT76G1 variant, mutations A33G_T263S_S274G_V279I_Y397E (protein, UniProt Q6VAB4 1-458, looked up, variant A33G T263S S274G V279I Y397E)
# UDP-glycosyltransferase 76G1: B1 UDP-glycosyltransferase 76G1 with A33G, A231E, A243L, T263S, S274G, N357S, Y397E
# B9: UGT76G1var69: UGT76G1 variant, mutations S274G_I295T_I335V_L379A (protein, UniProt Q6VAB4 1-458, looked up, variant S274G I295T I335V L379A)
# UDP-glycosyltransferase 76G1: B1 UDP-glycosyltransferase 76G1 with A231E, A243L, S274G, I279V, I295T, I335V, N357S, L379A
# B10: UGT76G1var76: UGT76G1 variant, mutations F22Y_A239I_L246F_I295M_R334K (protein, UniProt Q6VAB4 1-458, looked up, variant F22Y A239I L246F I295M R334K)
# UDP-glycosyltransferase 76G1: B1 UDP-glycosyltransferase 76G1 with F22Y, A231E, A239I, A243L, L246F, I279V, I295M, R334K, N357S
# B11: UGT76G1var79: UGT76G1 variant, mutations E224D_T284I_V366I_I373L_K393G (protein, UniProt Q6VAB4 1-458, looked up, variant E224D T284I V366I I373L K393G)
# UDP-glycosyltransferase 76G1: B1 UDP-glycosyltransferase 76G1 with E224D, A231E, A243L, I279V, T284I, N357S, V366I, I373L, K393G
# B12: UGT76G1var71: UGT76G1 variant, mutations I295M_V300A_K393G_Q432E (protein, UniProt Q6VAB4 1-458, looked up, variant I295M V300A K393G Q432E)
# UDP-glycosyltransferase 76G1: B1 UDP-glycosyltransferase 76G1 with A231E, A243L, I279V, I295M, V300A, N357S, K393G, Q432E
# B13: UGT76G1var68: UGT76G1 variant, mutations Q342K_G348P_I373L_Y397E (protein, UniProt Q6VAB4 1-458, looked up, variant Q342K G348P I373L Y397E)
# UDP-glycosyltransferase 76G1: B1 UDP-glycosyltransferase 76G1 with A231E, A243L, I279V, Q342K, G348P, N357S, I373L, Y397E
# B14: UGT76G1var78: UGT76G1 variant, mutations V279I_V300A_V310I_I335V_S357C (protein, UniProt Q6VAB4 1-458, looked up, variant V279I V300A V310I I335V S357C)
# UDP-glycosyltransferase 76G1: B1 UDP-glycosyltransferase 76G1 with A231E, A243L, V300A, V310I, I335V, N357C
# B15: UGT76G1var72: UGT76G1 variant, mutations T284L_D301N_K303G_S375R (protein, UniProt Q6VAB4 1-458, looked up, variant T284L D301N K303G S375R)
# UDP-glycosyltransferase 76G1: B1 UDP-glycosyltransferase 76G1 with A231E, A243L, I279V, T284L, D301N, K303G, N357S, S375R
# B16: UGT76G1var62: UGT76G1 variant, mutations L243P_P272A_V394I_V396F (protein, UniProt Q6VAB4 1-458, looked up, variant L243P P272A V394I V396F)
# UDP-glycosyltransferase 76G1: B1 UDP-glycosyltransferase 76G1 with A231E, A243P, P272A, I279V, N357S, V394I, V396F
# B17: UGT76G1var73: UGT76G1 variant, mutations F22Y_D301N_R334H_Q342E_V396F (protein, UniProt Q6VAB4 1-458, looked up, variant F22Y D301N R334H Q342E V396F)
# UDP-glycosyltransferase 76G1: B1 UDP-glycosyltransferase 76G1 with F22Y, A231E, A243L, I279V, D301N, R334H, Q342E, N357S, V396F
# B18: UGT76G1var83: UGT76G1 variant, mutations I43V_Q342E_S357N_S375R_L379G (protein, UniProt Q6VAB4 1-458, looked up, variant I43V Q342E S357N S375R L379G)
# UDP-glycosyltransferase 76G1: B1 UDP-glycosyltransferase 76G1 with I43V, A231E, A243L, I279V, Q342E, S375R, L379G
# B19: UGT76G1var75: UGT76G1 variant, mutations F41L_A239I_Q266S_S375M_P382M (protein, UniProt Q6VAB4 1-458, looked up, variant F41L A239I Q266S S375M P382M)
# UDP-glycosyltransferase 76G1: B1 UDP-glycosyltransferase 76G1 with F41L, A231E, A239I, A243L, Q266S, I279V, N357S, S375M, P382M
# B20: UGT76G1var70: UGT76G1 variant, mutations E224A_I295T_V300A_G348P (protein, UniProt Q6VAB4 1-458, looked up, variant E224A I295T V300A G348P)
# UDP-glycosyltransferase 76G1: B1 UDP-glycosyltransferase 76G1 with E224A, A231E, A243L, I279V, I295T, V300A, G348P, N357S
# B21: UGT76G1var4: UGT76G1 variant, mutations E224D_E231A_F265I (protein, UniProt Q6VAB4 1-458, looked up, variant E224D E231A F265I)
# UDP-glycosyltransferase 76G1: B1 UDP-glycosyltransferase 76G1 with E224D, A243L, F265I, I279V, N357S
# B22: UGT76G1var82: UGT76G1 variant, mutations E224D_L243A_F265L_R334H_A352G (protein, UniProt Q6VAB4 1-458, looked up, variant E224D L243A F265L R334H A352G)
# UDP-glycosyltransferase 76G1: B1 UDP-glycosyltransferase 76G1 with E224D, A231E, F265L, I279V, R334H, A352G, N357S
# B23: UGT76G1var65: UGT76G1 variant, mutations A33G_A239V_P382M_Q425E (protein, UniProt Q6VAB4 1-458, looked up, variant A33G A239V P382M Q425E)
# UDP-glycosyltransferase 76G1: B1 UDP-glycosyltransferase 76G1 with A33G, A231E, A239V, A243L, I279V, N357S, P382M, Q425E
# B24: UGT76G1var67: UGT76G1 variant, mutations E224D_F314S_S375R_Y397E (protein, UniProt Q6VAB4 1-458, looked up, variant E224D F314S S375R Y397E)
# UDP-glycosyltransferase 76G1: B1 UDP-glycosyltransferase 76G1 with E224D, A231E, A243L, I279V, F314S, N357S, S375R, Y397E
# B25: UGT76G1var63: UGT76G1 variant, mutations F314S_R334H_Q342K_L379G (protein, UniProt Q6VAB4 1-458, looked up, variant F314S R334H Q342K L379G)
# UDP-glycosyltransferase 76G1: B1 UDP-glycosyltransferase 76G1 with A231E, A243L, I279V, F314S, R334H, Q342K, N357S, L379G
# B26: UGT76G1var80: UGT76G1 variant, mutations L243P_L379A_S389E_Q425E_Q432E (protein, UniProt Q6VAB4 1-458, looked up, variant L243P L379A S389E Q425E Q432E)
# UDP-glycosyltransferase 76G1: B1 UDP-glycosyltransferase 76G1 with A231E, A243P, I279V, N357S, L379A, S389E, Q425E, Q432E
# Assay: Directed evolution of UGT76G1, conversion of Rebaudioside D to Rebaudioside M (round 1)
# Format: biochemical
# Settings: 0.5 mM Rebaudioside D, 2.5 mM UDP-Glucose, 100 μL fresh lysate, 30° C., pH 7.2
# Method in brief: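 UGT76G1 variants carrying 3-5 designed mutations were expressed in E. coli BL21(DE3) (pET30a+, 44 h at 20° C) and lysed. Lysate was reacted with 0.5 mM Reb D, 2.5 mM UDP-glucose, 3 mM MgCl2 in 50 mM phosphate pH 7.2 at 30° C; HPLC-CAD sampling at 2, 4, 7, 24 h gave conversion and initial rate.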
Molecule,Conversion Reb D to Reb M after 24 h (%),initial rate (Reb M area/min)
B1,0.5%,9.5E+04 Reb M area/min
B2,1.9%,4.4E+05 Reb M area/min
B3,6.4%,2.0E+06 Reb M area/min
B4,0.3%,3.1E+04 Reb M area/min
B5,0.6%,9.6E+04 Reb M area/min
B6,3.5%,2.3E+06 Reb M area/min
B7,0.8%,3.7E+05 Reb M area/min
B8,15.0%,6.5E+06 Reb M area/min
B9,24.7%,8.3E+06 Reb M area/min
B10,2.6%,7.2E+05 Reb M area/min
B11,8.5%,3.8E+06 Reb M area/min
B12,42.9%,2.1E+07 Reb M area/min
B13,−1.4%,−1.1E+05 Reb M area/min
B14,3.2%,8.2E+05 Reb M area/min
B15,19.2%,9.1E+06 Reb M area/min
B16,0.1%,3.4E+04 Reb M area/min
B17,0.8%,8.7E+05 Reb M area/min
B18,0.5%,4.3E+04 Reb M area/min
B19,0.8%,−1.3E+05 Reb M area/min
B20,24.0%,8.4E+06 Reb M area/min
B21,14.7%,8.6E+06 Reb M area/min
B22,1.1%,2.5E+05 Reb M area/min
B23,1.2%,3.3E+05 Reb M area/min
B24,−2.1%,−5.6E+05 Reb M area/min
B25,3.4%,1.2E+06 Reb M area/min
B26,1.0%,2.1E+05 Reb M area/min
